{"source": "paper PMC6049025", "molecular_target": "wild-type HCMV gB expressed in HEK293T cells (human cytomegalovirus (strain not stated)) (UniProt P06473)", "sequence (P06473 32-906)": "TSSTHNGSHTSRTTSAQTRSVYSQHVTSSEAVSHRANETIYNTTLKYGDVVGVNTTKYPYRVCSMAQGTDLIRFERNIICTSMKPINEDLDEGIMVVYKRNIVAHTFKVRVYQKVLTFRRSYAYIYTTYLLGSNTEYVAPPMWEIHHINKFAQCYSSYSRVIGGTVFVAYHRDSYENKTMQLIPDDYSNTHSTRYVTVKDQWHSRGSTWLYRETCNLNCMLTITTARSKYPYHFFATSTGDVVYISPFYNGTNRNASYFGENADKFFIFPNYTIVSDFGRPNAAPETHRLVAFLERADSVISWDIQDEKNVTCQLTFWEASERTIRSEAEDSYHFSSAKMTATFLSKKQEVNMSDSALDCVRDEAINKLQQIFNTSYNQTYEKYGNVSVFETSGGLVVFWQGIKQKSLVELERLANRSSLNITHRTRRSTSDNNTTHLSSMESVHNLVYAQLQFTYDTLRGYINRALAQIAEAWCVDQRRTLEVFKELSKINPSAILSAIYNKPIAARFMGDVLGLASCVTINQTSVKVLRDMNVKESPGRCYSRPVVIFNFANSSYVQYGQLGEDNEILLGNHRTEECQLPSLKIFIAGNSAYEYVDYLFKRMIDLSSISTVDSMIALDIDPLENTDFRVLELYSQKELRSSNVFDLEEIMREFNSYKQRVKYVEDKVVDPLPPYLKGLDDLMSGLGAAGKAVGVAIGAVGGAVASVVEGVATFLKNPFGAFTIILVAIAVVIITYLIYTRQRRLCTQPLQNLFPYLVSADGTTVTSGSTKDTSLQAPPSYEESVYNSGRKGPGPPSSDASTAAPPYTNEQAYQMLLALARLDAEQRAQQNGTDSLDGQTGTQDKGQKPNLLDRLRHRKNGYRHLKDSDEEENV", "test": "far-Western, overlay or dot blot"}
{"substance": "DC-SIGN-Fc (from UniProt Q9NNX6 59-404) (Fc fusion)", "values": [{"measurement": "DC-SIGN-Fc binding normalized on gB expression (ratio)", "value": 1.15}]}
